# Target: the molecule itself
# Assay: SDS-PAGE under reducing and non-reducing conditions (60 kD against 120 kD)
# Procedure: The two protein peaks with OCIF activity (peaks 6 and 7) were subjected to SDS-polyacrylamide gel electrophoresis under reducing and non-reducing conditions. Briefly, 20 μL of each peak fraction was concentrated under vacuum and dissolved in 1.5 μL of 10 mM Tris-HCl, pH 8, 1 mM EDTA, 2.5% SDS, 0.01% bromophenol blue, and incubated at 37° C. overnight under non-reducing conditions or under reducing conditions (with 5% of 2-mercaptoethanol). Each 1.0 μL of sample was then analyzed by SDS-polyacrylamide gel electrophoresis with a gradient gel of 10–15% acrylamide (Pharmacia Co.) and an electrophoresis-device (Fast System, Pharmacia Co.). The following molecular weight marker proteins were used to calculate molecular weight: phosphorylase b (94 kD), bovine serum albumin (67 kD), ovalbumin (43 kD), carbonic anhydrase (30 kD), trypsin inhibitor ([…]), and lactalbumin (14.4 kD). After electrophoresis, protein bands were visualized by silver stain using Phast Silver Stain Kit.
protein,measurement,value
"osteoclastogenesis inhibitory factor (OCIF) (other, Secreted glycoprotein, present as a 60 kD monomer and a 120 kD homodimer under non-reducing conditions; Natural OCIF from IMR-90 medium coated the plates in the hybridoma ELISA; Recombinant OCIF was the standard in the polyclonal EIA; Unaltered OCIF in 293/EBNA conditioned medium was used in the western blot; also called nOCIF; natural OCIF) ETFPPKYLHYDEETSHQLLCDKCPPGTYLKQHCTAKWKTVCAPCPDHYYTDSWHTSDECLYCSPVCKELQYVKQECNRTHNRVCECKEGRYLEIEFCLKHRSCPPGFGVVQAGTPERNTVCKRCPDGFFSNETSSKAPCRKHTNCSVFGLLLTQKGNATHDNICSGNSESTQKCGIDVTLCEEAFFRFAVPTKFTPNWLSVLVDNLPGTKVNAESVERIKRQHSSQEQTFQLLKLWKHQNKDQDIVKKIIQDIDLCENSVQRHIGHANLTFEQLRSLMESLPGKKVGAEDIEKTIKACKPSDQILKLLSLWRIKNGDQDTLKGLMHALKHSKTYHFPKTVTQSLKKTIRFLHSFTMYKLYQKLFLEMIGNQVQSVKISCL",binding result,binds

# Reference: US6919434
